Source: article PMC12307460
Values joined by “and” are separate entries in the source; they are usually repeats but may differ in a detail not shown here. Identical values can stand only once.

What was measured:
[1] = molecular target: MERS-CoV spike (S) protein of strain HCoV-EMC/2012 (clade A) (MERS-CoV strain HCoV-EMC/2012 (clade A)) (UniProt K9N5Q8)
[2] = molecular target: MERS-CoV spike (S) protein of strain MERS-CoV/KOR/KNIH/002_05_2015 (clade B) (MERS-CoV strain MERS-CoV/KOR/KNIH/002_05_2015 (clade B))
[3] = molecular target: MERS-CoV spike (S) protein of strain NRCE-HKU270 (clade C) (MERS-CoV strain NRCE-HKU270 (clade C))
[4] = molecular target: spike (S) protein of bat merbecovirus BtCoV/Ii/GD/2014-422 (BtCoV/Ii/GD/2014-422 (bat MERSr-CoV))
[5] = molecular target: spike (S) protein of pangolin merbecovirus MjHKU4r-CoV (MjHKU4r-CoV (pangolin HKU4r-CoV))

UniProt K9N5Q8, sequence (K9N5Q8 18-1353): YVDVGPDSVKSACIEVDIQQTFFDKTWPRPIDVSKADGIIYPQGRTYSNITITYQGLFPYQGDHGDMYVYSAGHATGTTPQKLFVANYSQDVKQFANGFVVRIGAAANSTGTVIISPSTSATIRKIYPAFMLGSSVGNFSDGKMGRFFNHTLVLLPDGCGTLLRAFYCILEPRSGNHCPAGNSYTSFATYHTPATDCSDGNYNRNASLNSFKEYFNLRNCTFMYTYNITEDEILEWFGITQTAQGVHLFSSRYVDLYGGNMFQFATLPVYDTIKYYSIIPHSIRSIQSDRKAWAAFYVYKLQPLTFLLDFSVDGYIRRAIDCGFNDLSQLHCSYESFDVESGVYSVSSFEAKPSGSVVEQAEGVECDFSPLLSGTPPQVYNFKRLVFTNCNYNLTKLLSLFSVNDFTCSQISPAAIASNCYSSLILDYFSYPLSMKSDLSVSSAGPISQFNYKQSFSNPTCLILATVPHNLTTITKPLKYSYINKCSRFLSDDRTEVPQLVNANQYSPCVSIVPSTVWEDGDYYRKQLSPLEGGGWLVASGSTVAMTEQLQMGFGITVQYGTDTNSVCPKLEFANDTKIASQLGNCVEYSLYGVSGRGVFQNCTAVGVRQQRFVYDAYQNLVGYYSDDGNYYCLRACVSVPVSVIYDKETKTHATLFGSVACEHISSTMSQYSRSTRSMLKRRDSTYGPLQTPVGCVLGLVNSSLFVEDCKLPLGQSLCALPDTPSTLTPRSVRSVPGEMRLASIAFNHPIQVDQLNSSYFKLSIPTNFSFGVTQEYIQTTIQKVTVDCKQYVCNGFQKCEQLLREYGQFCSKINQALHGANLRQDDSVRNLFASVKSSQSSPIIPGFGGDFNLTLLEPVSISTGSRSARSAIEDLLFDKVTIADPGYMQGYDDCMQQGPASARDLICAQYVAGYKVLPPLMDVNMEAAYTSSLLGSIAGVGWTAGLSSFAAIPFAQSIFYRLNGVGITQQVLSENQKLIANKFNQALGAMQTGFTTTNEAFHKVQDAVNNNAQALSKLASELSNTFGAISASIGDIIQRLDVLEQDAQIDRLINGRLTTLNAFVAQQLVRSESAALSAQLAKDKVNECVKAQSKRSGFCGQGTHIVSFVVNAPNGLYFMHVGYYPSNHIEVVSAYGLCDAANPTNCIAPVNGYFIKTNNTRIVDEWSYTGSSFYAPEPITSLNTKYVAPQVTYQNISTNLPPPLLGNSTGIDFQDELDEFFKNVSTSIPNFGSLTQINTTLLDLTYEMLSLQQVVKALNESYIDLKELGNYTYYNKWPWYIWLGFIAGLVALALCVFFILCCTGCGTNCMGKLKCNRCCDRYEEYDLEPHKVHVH

Substance | IC50 of neutralisation of S pseudovirus, average [1] [µg/mL] | IC50 of neutralisation of S pseudovirus, average [2] [µg/mL] | IC50 of neutralisation of S pseudovirus, one of three assays [2] | IC50 of neutralisation of S pseudovirus, average [3] [µg/mL] | IC50 of neutralisation of S pseudovirus, one of three assays [3] | IC50 of neutralisation of S pseudovirus, average [4] [µg/mL] | IC50 of neutralisation of S pseudovirus, one of three assays [4] [µg/mL] | IC50 of neutralisation of S pseudovirus, average [5] [µg/mL] | IC50 of neutralisation of S pseudovirus, one of three assays [5] [µg/mL] | IC50 of neutralisation of S pseudovirus, one of three assays [1]
MCA1 (antibody) | 0.059 | 0.096 | 0.082 µg/mL and 0.06 µg/mL and 0.15 µg/mL | 0.067 | 0.084 µg/mL and 0.047 µg/mL and 0.071 µg/mL | > 5 | > 5 | > 5 | > 5 | 
D12 (antibody) | 0.068 | 0.19 | 0.25 µg/mL and 0.18 µg/mL and 0.14 µg/mL | 0.085 | 0.095 µg/mL and 0.098 µg/mL and 0.061 µg/mL | > 5 | > 5 | > 5 | > 5 | 0.087 µg/mL and 0.077 µg/mL and 0.041 µg/mL
G4 (antibody) | 8.1 | 7.7 |  | 9.3 | 5.2 µg/mL and 8.7 µg/mL and 14 µg/mL | 11 |  | > 25 | > 25 | 5.9 µg/mL and 6.4 µg/mL and 12 µg/mL
m336 (antibody) | 0.14 | 0.85 |  | 0.36 |  | > 5 | > 5 | > 5 | > 5 | 
7D10 (antibody) | 50 | 7.5 |  | > 50 | > 50 µg/mL | 23 |  | > 50 | > 50 | 50 µg/mL
CDC2-C2 (antibody) | 0.041 | 0.17 |  | 0.12 |  | > 5 | > 5 | > 5 | > 5 | 
JC57-14 (antibody) | 0.037 | 0.064 | 0.09 µg/mL and 0.043 µg/mL and 0.06 µg/mL | 0.055 | 0.066 µg/mL and 0.059 µg/mL and 0.039 µg/mL | > 5 | > 5 | > 5 | > 5 | 0.039 µg/mL and 0.023 µg/mL and 0.047 µg/mL
